In PMC3814370, “Functional assignment of KEOPS/EKC complex subunits in the biosynthesis of the universal t^6A tRNA modification” (Nucleic Acids Research, 2013):

B1: Pcc1–Kae1 binary complex from Pyrococcus abyssi (complex)
chain 1: MKPKRVQGKIVIEFPSEDIAEVVYTSVLYEHVSVPYRRSRVNFRREGRRIVLEIEANDSSAMRGTVNSYLRWIKVALDVLNI
chain 2: MLALGIEGTAHTLGIGIVSEDKVLANVFDTLTTEKGGIHPKEAAEHHARLMKPLLRKALSEAGVSLDDIDVIAFSQGPGLGPALRVVATAARALAVKYRKPIVGVNHCIAHVEITKMFGVKDPVGLYVSGGNTQVLALEGGRYRVFGETLDIGIGNAIDVFARELGLGFPGGPKVEKLAEKGEKYIELPYAVKGMDLSFSGLLTEAIRKYRSGKYRVEDLAYSFQETAFAALVEVTERAVAHTEKDEVVLVGGVAANNRLREMLRIMTEDRGIKFFVPPYDLCRDNGAMIAYTGLRMYKAGISFRLEETIVKQKFRTDEVEIVW
notes: Pcc1, Pyrococcus abyssi; Kae1, Pyrococcus abyssi; Written as the unit of one Pcc1 and one Kae1 (predicted 45 kDa); Its dimerisation is a row of the complex with itself; also called PK; Kae1–Pcc1; source: E. coli Rosetta2 (DE3) pLysS, co-expressed, purified (heat 65°C, Ni-NTA, Superdex 200)

Legend:
[1] = target: the molecule itself; experiment: SEC; gel filtration of purified proteins and complexes on Superdex 200 in storage buffer (LBs); apparent molecular mass (Supplementary Figure S2)
[2] = target: B1; experiment: cell-based or functional assay

Q: For B1, which “stoichiometry N” value [1] is on record?
A: 2

B2: Bud32–Cgi121 binary complex from Pyrococcus abyssi (complex)
chain 1: MKLIKQGAEAKIYLAEFSELYFDYPIKVIVKERIKKRYRIPEIDLKLRKERTIREARILRRAKEFGVNVPYVFEVDTKNMIIVMEYIEGERLKELLEKLPMEERLKVCREVGRQIGKLHEAGIVHGDLTTSNMILREGKVYFIDFGLAEFDDTIEAQGVDLHLLKRAMESTHYKWFERGFEEVLKGYIEIRGEDKGREIREKIREIELRGRYRERSWITQ
chain 2: MTPKFKNFKHDNSGQVETYLFEVISKYTMLEIKTKFGKLCIAKVKLASESIERALNLCNDNCQIVSAKCHEEVIFATILAIKAFSSGRNTAKTIKGEILLRLAGVKQIKDAIKIIGARKGENLIIYFGVSDPCSSLKDFISSLGLREEPLKPCDEDEVKRGFERAAIIEAL
Q: How did the “t^6A synthesis (14C-L-threonine incorporated into tRNA) by an equimolar mix of the two binary complexes, relative to PaKEOPS” value [2] turn out when B2 was run?
A: ~80%
